The source of these data is patent publication US20090215639A1.

Broadly, the koff is the first-order rate constant of dissociation. High values mean a short-lived complex, low ones a long-lived complex.

The assay has as its target human full length IgG1 (Calbiochem) (human). Briefly: BIAcore SPR, IgG1 immobilized, soluble receptor injected.

FcγRIIIa F158 (receptor) registered a fold faster koff against FcγRIIIaV158 of 6 fold and a koff of 0.0858 s⁻¹.

FcγRIIIa V158 (receptor): the koff turned out to be 0.0139 s⁻¹.
